Target: tetanus toxoid (UniProt P04958 2-1315)
Assay: hybridoma screening ELISA

Chain of tetanus toxoid (P04958 2-457 limits assumed, chain 1 of 2): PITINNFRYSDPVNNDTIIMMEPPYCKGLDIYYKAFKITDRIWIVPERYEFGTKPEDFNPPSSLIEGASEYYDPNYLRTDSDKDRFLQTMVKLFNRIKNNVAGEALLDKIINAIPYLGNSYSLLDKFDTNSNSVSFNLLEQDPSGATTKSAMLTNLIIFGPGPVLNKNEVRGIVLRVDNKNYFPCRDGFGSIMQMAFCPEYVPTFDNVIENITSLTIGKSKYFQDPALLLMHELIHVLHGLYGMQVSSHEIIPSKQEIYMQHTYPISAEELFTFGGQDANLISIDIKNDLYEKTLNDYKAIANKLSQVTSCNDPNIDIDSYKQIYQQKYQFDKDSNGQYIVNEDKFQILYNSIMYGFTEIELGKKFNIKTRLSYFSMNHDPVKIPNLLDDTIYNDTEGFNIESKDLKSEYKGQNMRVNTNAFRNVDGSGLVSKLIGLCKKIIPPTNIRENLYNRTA
Chain of tetanus toxoid (P04958 458-1315 limits assumed, chain 2 of 2): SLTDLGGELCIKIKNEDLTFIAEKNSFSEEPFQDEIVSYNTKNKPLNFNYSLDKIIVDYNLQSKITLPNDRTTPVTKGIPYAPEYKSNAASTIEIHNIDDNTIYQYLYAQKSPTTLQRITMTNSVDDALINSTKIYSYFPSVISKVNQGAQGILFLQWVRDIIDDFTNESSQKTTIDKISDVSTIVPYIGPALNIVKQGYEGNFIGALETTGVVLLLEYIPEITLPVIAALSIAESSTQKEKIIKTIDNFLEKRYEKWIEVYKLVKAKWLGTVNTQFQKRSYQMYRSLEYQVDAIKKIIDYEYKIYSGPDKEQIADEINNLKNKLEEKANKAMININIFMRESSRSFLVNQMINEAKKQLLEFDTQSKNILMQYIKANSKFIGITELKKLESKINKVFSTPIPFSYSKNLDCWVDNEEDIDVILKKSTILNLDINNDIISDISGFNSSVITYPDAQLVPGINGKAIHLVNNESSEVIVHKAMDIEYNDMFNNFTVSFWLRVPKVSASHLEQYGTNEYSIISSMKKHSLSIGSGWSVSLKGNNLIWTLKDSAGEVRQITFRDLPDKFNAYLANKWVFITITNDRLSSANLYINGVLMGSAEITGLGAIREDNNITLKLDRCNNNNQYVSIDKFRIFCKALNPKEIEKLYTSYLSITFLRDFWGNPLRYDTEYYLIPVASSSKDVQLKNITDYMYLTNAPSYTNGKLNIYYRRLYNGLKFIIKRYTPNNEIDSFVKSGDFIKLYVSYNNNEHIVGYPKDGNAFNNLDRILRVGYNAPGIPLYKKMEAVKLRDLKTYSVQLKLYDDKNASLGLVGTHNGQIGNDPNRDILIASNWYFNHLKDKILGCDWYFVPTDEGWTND

Binder	binding result
human anti-SEB monoclonal antibody 100C9 (antibody, V domains shown) VH: EVQLVESGGGLVQPGGSLRLSCSASGFTFSSYWMSWVRQAPGKGLEWVANIIQDGSEKYYADSVKGRLTISRDNAKNSLYLQMNSLRVDDTAVYYCARGYEGCSATRCYLYYFDYWGPGTLVTVSS VL: SYVLTQPPSVSVSPGQTARITCSGDALPKQYTYWYQQKPGQAPVVVIYKDSERPSGIPERFSGSSSGTTVTVTISGVQAEDEADYYCQSADSSGTSLVFGGGTKLTVLG	no binding
human anti-SEB monoclonal antibody 79G9 (antibody, V domains shown) VH: EVQLEESGAGLLKPSETLSLTCAVYGGSFSGYYWSWIRQAPGKGLEWIGEIDHSGTTNYNPSLKSRVTISVETSKNQFSLRLSSVTAADSAVYYCASSGYCSHGLCPQEDWGQGTLVTVSS VL: DIELTQSPSFLSASVGDRVAITCRASQGISNYLAWYQQKPGKAPKLLIYAAFVLQSGVPSRFSGSGSGTEFTLTISNLQPEDFATYYCQQLNSYPRAFGPGTKVDIKR	no binding
human anti-SEB monoclonal antibody F10 (antibody, V domains shown) VH: QVQLVQSGGGLVKPGGSLRLSCAASGFTFSSYSMNWVRQAPGKGLEWVSSISSSSSYIYYADSVKGRFTISRDNAKNSLYLQMNSLRAEDTAVYYCARGGVAGRTEIYYYYYGMDVWGQGTTVTVSS VL: not shown	no binding

Source: patent US20140072553A1 (MORPHOTEK, published 2014)
